Test results taken from patent publication US20230248770A1 (published 2023).

How the values were obtained:
[1] = target: T1, WT1 peptide on HLA-A*02:01 (human); assay: activation reporter or marker
T1 peptide: RMFPNAPYL

[2] = target: T2, NEF peptide on HLA-A*24:02 (human); assay: cytokine release
T2 peptide: RYPLTFGWCF

B1: FE11 γδTCR (TCR, V domains shown)
Vgamma: SSNLEGGTKSVTRPTRSSAEITCDLTVINAFYIHWYLHQEGKAPQRLLYYDVSNSKDVLESGLSPGKYYTHTPRRWSWILILRNLIENDSGVYYCATWDRPEIYYKKLFGSGTTLVVT
Vdelta: not shown
[1]
  binding result: no recognition
[2]
  binding result: no recognition
